From article PMC10684895, “The ELAVL3/MYCN positive feedback loop provides a therapeutic target for neuroendocrine prostate cancer”

Target: GST-ELAVL3 (UniProt Q14576 1-367)
Experiment: EMSA; 5 mM Mg2+; RNA-EMSA: 20 mM Tris-HCl (pH not stated), 100 mM NaCl, 5 mM MgCl2, 2 mM DTT, 37 C 1 h, 6% native gel at 4 C; pull-down: 50 pmol probe on beads, cell lysate, 4 C overnight
Conditions: protein: recombinant; tags: N-terminal GST (pGEX-4T-1); label: 3'-biotin

Chain of GST-ELAVL3 (Q14576 whole entry): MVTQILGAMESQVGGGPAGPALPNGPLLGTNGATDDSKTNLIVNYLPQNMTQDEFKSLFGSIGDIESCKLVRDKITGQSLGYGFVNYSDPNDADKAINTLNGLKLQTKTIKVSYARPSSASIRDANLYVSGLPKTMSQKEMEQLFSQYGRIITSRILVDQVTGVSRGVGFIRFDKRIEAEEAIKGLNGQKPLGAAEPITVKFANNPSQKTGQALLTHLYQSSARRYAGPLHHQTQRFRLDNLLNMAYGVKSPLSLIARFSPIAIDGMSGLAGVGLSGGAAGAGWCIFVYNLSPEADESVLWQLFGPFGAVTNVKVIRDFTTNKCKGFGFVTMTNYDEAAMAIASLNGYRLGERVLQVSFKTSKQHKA

Binder	binding result
CACUCUGCACAUCCUGAUCUCUCUCUCAGA (ssRNA) [MYCN-3'UTR-F1-MUT]	no binding
UCCAUCCUAGACACUACCUCAGUCGACGUA (ssRNA) [RICTOR-3'UTR-F3-MUT]	no binding
